Among the data in the supplement of paper PMC12042874 are amyloid nucleation score values, retold here.

± gives the uncertainty stated by the source.

A short description of this series: amyloid nucleation score (Sup35N fusion, yeast selection) (log enrichment); library NNK2; higher = more nucleation; inactive = no reads after selection. A digest of the protocol: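 On medium lacking adenine and uracil, psi-negative yeast expressing peptides of 20 random codons fused to Sup35N were grown 7 days at 30°C after a 24-hour induction with 100 μM copper sulfate. Illumina sequencing of input and output plasmid inserts gave the reads, and sequences under 100 input reads were excluded. The nucleation score is the DiMSum log enrichment of output over input reads, centred on the mode score of non-aggregating sequences.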
LLNVIVVRIK came in with an amyloid nucleation score of 5.313 ± 0.03.
RKPLLHLVRFRWNNPLDNE returned an amyloid nucleation score of -1.03 ± 0.76.
Consider IRCLFVT, for which the amyloid nucleation score result is “inactive”.
For the substance LLLNLRQGMTKIPIGFILLI, the amyloid nucleation score was -0.64 ± 0.36.
LGSLNNPA returned an amyloid nucleation score of 7.941 ± 0.077.
As for LYLWWILIYDHMAPKEW, the amyloid nucleation score is -0.47 ± 0.63.
Consider IYALFLICLLHISVGLLMYR, for which the amyloid nucleation score is -0.179 ± 0.63.
In the case of GTCLHCGEIRS it was -0.293 ± 0.29.
Substance IATAKTRQGFPLMSTLPAIV gave an amyloid nucleation score of 0.37 ± 0.5.
IFTKNFIPCDFFMS: the amyloid nucleation score is -2.05 ± 0.76.
As to CFSSIQIRDKTVVGDSWMFR, the amyloid nucleation score came out at 3.58 ± 0.14.
Consider ATARS, for which the amyloid nucleation score is 0.701 ± 0.29.
In the case of VKGKE it was 2.31 ± 0.14.
In the case of FVIVVFRPLGKWQRLFFCNC it was 0.811 ± 0.21; in that of SKEVAAGCSLGIRVVMFKR, “inactive”.
LLRMLSYR displayed an amyloid nucleation score of 0.138 ± 1.1.
SISSLLLRLRGTV gave an amyloid nucleation score of -0.305 ± 0.79.
In the case of ILGCWELSHM it was -0.849 ± 1.1; in that of SRAAPDINS, 0.251 ± 0.25.
Take FINWHGMHSL: the amyloid nucleation score was 0.89 ± 0.16.
Regarding LRGLCRVHWRSERAQSMRPG, the amyloid nucleation score came out at 0.892 ± 0.45.
In the case of HDLKLV it was 0.266 ± 0.41; in that of GFSRRGELHVSVYHIRDTFG, 4.88 ± 0.081; in that of GIHLVFGFMEWRVMSTLKVS, -0.584 ± 0.64.
In the case of NSDRL it was -0.794 ± 0.45; in that of TSSTSRVDRACPGDSWPDID, -0.068 ± 0.42; in that of GYASTDEVMTLRMYLTSIYT, -0.187 ± 0.55.
The substance DSSLNIGVLPIVTNGLTKCD had an amyloid nucleation score of -0.29 ± 0.28.
In the case of KPRMWIYIFMAWEAYPAYI it was “inactive”.
In turn, TLFVKTYMSVFYIIACSSC had an amyloid nucleation score of -0.218 ± 0.64.
SVNYMAFWKVPTCGLQGGKG returned an amyloid nucleation score of -0.097 ± 0.76.
In the case of RATSVSILVQLGETLFCEYT it was 0.56 ± 0.2; in that of VFNSTFANLW, 2.6 ± 0.092.
In turn, STRKCFLMLILTRFGMCC had an amyloid nucleation score of 0.603 ± 0.38.
Turning to VIKTG, the amyloid nucleation score entry is “inactive”.
YLFSLKQLWF came in with an amyloid nucleation score of 5.06 ± 0.078.
In the case of GRRDNMVRCKRLCRWRVWTA it was 0.157 ± 0.55; in that of RAATYYQFVVLVCKQSDFKR, 5.77 ± 0.095.
AGFWEDEVFRV yielded an amyloid nucleation score of -0.714 ± 0.48.
Substance VALRFTIMDCRIYLYSLNVF displayed an amyloid nucleation score of 0.125 ± 0.79.
As to LSRNTYWYGVEIGLVLSSCT, the amyloid nucleation score worked out at 0.161 ± 0.24.
The substance VVSERRAFVRGVFDWIITLD registered an amyloid nucleation score of -0.02 ± 0.55.
As for AMMFDVFRYLRESVISMCKG, the amyloid nucleation score turned out to be 0.367 ± 0.54.
In the case of RSFLWVFRKYRGW it was 0.783 ± 0.66.
Regarding VRDVKLLPKMVGSNIIGSVL, the amyloid nucleation score result was “inactive”.
In the case of VHLTAVWCLDRRRVRKIFIV, the amyloid nucleation score is -0.802 ± 0.76.
In the case of HGYSWVVI, the amyloid nucleation score came to 0.019 ± 0.19.
In the case of GLRRRMCCRRCWLEGVDFQD, the amyloid nucleation score entry is “inactive”.
The substance VSKPQKRFKDEFYSLLSVKF yielded an amyloid nucleation score of -0.55 ± 0.76.
Take YYKQWG: the amyloid nucleation score entry is “inactive”.
In turn, WVNYFEGLMIPVSARN displayed an amyloid nucleation score of -1.16 ± 0.76.
As for CICLIMRTKTCELGSLLG, the amyloid nucleation score amounted to 5.781 ± 0.046.
Turning to GSVTTCSAWYKRRNLDICHR, the amyloid nucleation score is -0.277 ± 0.22.
In the case of LVGLISRNKVVRTGIENNKD it was -0.059 ± 0.55; in that of LVSLVQRYLDHRPDNKM, -0.05 ± 0.48.
The substance KNLMCQARNYSLIGALWSVS gave an amyloid nucleation score of -0.451 ± 0.76.
Regarding SYMCKAHKRLIIGGKWINGW, the amyloid nucleation score was -0.031 ± 0.53.
As to SFCMPGISLFLVFRQTDGHM, the amyloid nucleation score entry was “inactive”.
The substance VTMKHVAGSSHDCPYAILTN came in with an amyloid nucleation score of 0.082 ± 1.
On to IRVYFRDEYLKFG, for which the amyloid nucleation score was -0.358 ± 0.19.
In the case of LLVGIGMFEEQFQLYHI, the amyloid nucleation score is -0.867 ± 0.29.
VFGVLPIIGYPVRVLCVRFI registered an amyloid nucleation score of -0.43 ± 1.1.
Substance EMYFALLVLFVLGGFSM yielded an amyloid nucleation score of -0.409 ± 0.76.
As for LCGTLLIMKRVMSGYNLQAK, the amyloid nucleation score is -0.37 ± 0.26.
In the case of GLLEAWEDFLGRMHGVGLVC it was 4.15 ± 0.051; in that of FRNTWFCFLLKLLTS, -0.818 ± 0.42.
The substance ILVRTSCGGM returned an amyloid nucleation score of -0.898 ± 1.1.
On to LLVDTNYSSQMASERFRTCG, for which the amyloid nucleation score is -0.34 ± 0.37.
In the case of SVLMGG it was -0.223 ± 0.54.
With VIGTTGMYLCVVLETIHNWC, the amyloid nucleation score came out at 1.07 ± 0.26.
Consider DKYITCVESWWPSILGGEKP, for which the amyloid nucleation score turned out to be 1.87 ± 0.23.
The substance VGKWVRGQTSLLLVAWSAIY had an amyloid nucleation score of 0.28 ± 0.61.
YHPTLVLGYQLTLLFMAFL displayed an amyloid nucleation score of 0.613 ± 0.74.
FDLWIPGAVVEVIDMGSAAR yielded an amyloid nucleation score of 0.651 ± 0.44.
Substance VIYMNAGLYLRLKRRFDYVV came in with an amyloid nucleation score of 0.72 ± 0.58.
LFRDTSQLGNSVIVTYYM gave an amyloid nucleation score of 9.029 ± 0.052.
In the case of IYFWDTLTFLLSCLHAAGEN it was -1.87 ± 0.64.
The substance PSNTIYHFIAELNEYETPRF gave an amyloid nucleation score of 0.426 ± 0.15.
Regarding ICACKSY, the amyloid nucleation score came out at 5.28 ± 0.076.
For YPNLFS, the amyloid nucleation score is 0.522 ± 0.74.
For MRVLFIDYKTVRYCDDL, the amyloid nucleation score was -1.03 ± 1.1.
Take NQCAVQGLYRRRMVHDRQED: the amyloid nucleation score is -0.52 ± 0.78.
In the case of RIMTFFVMPDSRRRVDHNQV it was 0.074 ± 1.
For RTRCYCVYFRLLVHFA, the amyloid nucleation score was determined as 0.057 ± 1.1.
As to STHSGLSMT, the amyloid nucleation score worked out at 0.877 ± 0.27.
SQRLIRWNCLNAGTIMPSVV: the amyloid nucleation score is 0.089 ± 1.1.
SSKKCDNRGLMLWVRGILVA had an amyloid nucleation score of -0.059 ± 0.24.
ALDSNSWPYDGGMWRTT had an amyloid nucleation score of -0.232 ± 1.1.
Regarding LVMWNRCSIKRVNREMVHSF, the amyloid nucleation score amounted to 0.538 ± 0.3.
For INMTLELDSVRRNLLYAGGG, the amyloid nucleation score is -0.142 ± 0.55.
In the case of SILGGVKSLRNIKLFSVWLA it was -0.569 ± 0.79.
In the case of MAILVGSFDVDSNCVDSWGV it was 0.027 ± 0.74; in that of TDRIDCAFAYDYL, -1.08 ± 0.54; in that of QMIWKIVCING, 4.55 ± 0.097.
In the case of VFYNIL, the amyloid nucleation score entry is “inactive”.
In the case of NTFWLGFPYSLLQALCHALD it was 0.447 ± 0.53; in that of DARFLPVVLRKKTDSICYVN, -0.177 ± 0.79.
The substance WSYGSNLPWLDKPNWHHETW came in with an amyloid nucleation score of 1.2 ± 0.47.
The substance VVPFIKTRCNPV returned an amyloid nucleation score of -0.829 ± 0.33.
As to GYEWSSVSEQGC, the amyloid nucleation score amounted to 1.27 ± 0.52.
LSHLISVVRRVRKYSYGEVV came in with an amyloid nucleation score of 0.389 ± 0.64.
In turn, SLYFVWSCLLGILKVMPTFN yielded an amyloid nucleation score of -1.18 ± 0.64.
In the case of MFMANGSWTYEEVIE it was 1.47 ± 0.16.
In turn, KTTSISLAVEGYLVGISLIP registered an amyloid nucleation score of 7.26 ± 0.078.
SQHSRHRRQSVVYYAVDGVE displayed an amyloid nucleation score of 1.21 ± 0.31.
As to THLHQD, the amyloid nucleation score was -1.55 ± 0.76.
PCLKGVITLLLKGPGPHRVN returned an amyloid nucleation score of 0.091 ± 0.42.
GVYICQFIAVISLSAQSLWY gave an amyloid nucleation score of -0.97 ± 1.1.
Substance TYADW yielded an amyloid nucleation score of 0.902 ± 0.3.
In the case of WIIIFSKFV it was -0.695 ± 0.79; in that of SQWSCVRTSFGPPMYKWFDL, 5.655 ± 0.045.
In the case of NHSMRFVLTMPILWKNQKAG it was 0.228 ± 1; in that of SWRAYSSF, 2.73 ± 0.081; in that of RFHFSDWR, “inactive”.
LEVRSAWGHLPFMSPEGL showed an amyloid nucleation score of -1.17 ± 0.44.
The substance KFYYVTGDATLNRDLWGSRA came in with an amyloid nucleation score of -0.79 ± 0.34.
For the substance HDQGSTMFCGRNAATLSQCW, the amyloid nucleation score is 1.54 ± 0.25.
Substance SECFRLSLRKGCNTNQVRNT yielded an amyloid nucleation score of -0.989 ± 0.63.
EAVNGWALLHIVSQ: the amyloid nucleation score is 0.111 ± 0.33.
The substance TLQLSSADPGLNAFSDVYRV returned an amyloid nucleation score of -0.627 ± 1.1.
In the case of TCQLMMCNFVFCCKMTSTLK, the amyloid nucleation score amounted to 8.252 ± 0.047.
On to WGLFPLQCHLVYRLLLSFHK, for which the amyloid nucleation score entry is “inactive”.
Substance DSGVAHCANPCRPYREPVQS gave an amyloid nucleation score of 1.09 ± 0.37.
As for IMVRLLDAYHTMRAKDSMGN, the amyloid nucleation score is 0.06 ± 0.62.
Regarding EGEITFGTFPYSEFVFECST, the amyloid nucleation score entry was “inactive”.
For the substance ISHYAYQ, the amyloid nucleation score is 0.811 ± 0.57.
The substance CTCNLWYTLMCAFHASRLVH displayed an amyloid nucleation score of 0.327 ± 0.34.
IEDYACMLNREMG came in with an amyloid nucleation score of 5.36 ± 0.049.
For the substance PSLRSSCCWNFRPP, the amyloid nucleation score turned out to be 0.175 ± 0.42.
Substance CIVSVNERRVVFGAVNTEFR returned an amyloid nucleation score of 4.79 ± 0.058.
In the case of NRSTRGWGVVSTLCYRLSSF, the amyloid nucleation score result is “inactive”.
Substance DFCYFSFRPLHLRFQNTDWP returned an amyloid nucleation score of 0.007 ± 1.1.
In the case of FNIRSFICV, the amyloid nucleation score result is “inactive”.
The substance WYSYRL had an amyloid nucleation score of -0.11 ± 0.46.
On to VKQWT, for which the amyloid nucleation score is 1.74 ± 0.24.
In the case of NWLGCEMPIGGSSSVSAMYL it was 1.17 ± 0.21; in that of SSSFHKYRRALWKRKRTWVV, 5.63 ± 0.081.
Take RVIQLQKVTHWW: the amyloid nucleation score turned out to be 2.72 ± 0.078.
Regarding LSRRAINHFYNIITEVAGRG, the amyloid nucleation score result was “inactive”.
In turn, FEIWWLVGVVFWMVSGVNTV gave an amyloid nucleation score of -0.074 ± 0.22.
In the case of TGLDIGLGWLYMYRGATLAI it was 0.542 ± 0.35.
